The text below walks through data of PMC6300978 (Chemico-biological interactions, 2015).

Data set [1] in a line: Chemical inhibition of GA glucuronidation. The conditions noted are these: GA 2 µM, M2 formation.
The conditions of data set [2]: probe reaction for UGT1A1; cited from earlier work.
For data set [3], the system named is UGT1A8. The conditions noted are these: mycophenolic acid as substrate of UGT1A8; cited from earlier work.
Substrate in data set [4]: CC1(C)C=Cc2c(ccc3c2OC[C@@H](c2ccc(O)cc2O)C3)O1
In words: GA glucuronidation kinetics by recombinant UGT1A1. In kind it is in vitro ADME, human. The settings on record: Michaelis–Menten, pH 7.4.

Substrate in data set [5]: CC1(C)C=Cc2c(ccc3c2OC[C@@H](c2ccc(O)cc2O)C3)O1
In words: GA glucuronidation by recombinant UGT1A8. Type of data set: in vitro ADME, human. The settings on record: other: UGT1A8, M2 formation, substrate inhibition model; pH 7.4.

Substrate in data set [6]: CC1(C)C=Cc2c(ccc3c2OC[C@@H](c2ccc(O)cc2O)C3)O1
The experiment in a line: GA glucuronidation kinetics by recombinant UGT1A3. In kind it is in vitro ADME, human. The settings on record: other: UGT1A3, M2 formation, Michaelis–Menten; pH 7.4.

Substrate in data set [7]: CC1(C)C=Cc2c(ccc3c2OC[C@@H](c2ccc(O)cc2O)C3)O1
In words: GA glucuronidation kinetics by recombinant UGT1A10. In kind it is in vitro ADME, human. The settings on record: other: UGT1A10, M2 formation, substrate inhibition model; pH 7.4.

For `C=CCc1ccc(O)c(-c2cc(CC=C)ccc2O)c1` [magnolol], the “remaining GA glucuronidation activity in HIM” value in data set [1] (inhibitor 1 µM) is on record as “above 85 % of the control”.
Consider `C#C[C@]1(O)CC[C@H]2[C@@H]3CCc4cc(O)ccc4[C@H]3CC[C@@]21C` [ethylestradiol], for which, in data set [2], the “rate of 3-O-glucuronidation by DLM relative to HLM” value was 10 fold.
`Cc1cn(-c2cc(NC(=O)c3ccc(C)c(Nc4nccc(-c5cccnc5)n4)c3)cc(C(F)(F)F)c2)cn1` [nilotinib]: in data set [1] (inhibitor 1 µM), the “remaining GA glucuronidation activity in HIM” value is given as “above 85 % of the control”.
`COc1c(C)c2c(c(O)c1C/C=C(\C)CCC(=O)O)C(=O)OC2` [mycophenolic acid]: in data set [3], the Km was 1.39 µM. The “remaining GA glucuronidation activity in HIM” value in data set [1] (inhibitor 10 µM) is 28 % of the control.
With `OC(Cn1cncn1)(Cn1cncn1)c1ccc(F)cc1F` [fluconazole], the “remaining GA glucuronidation activity in HIM” value in data set [1] (inhibitor 1 mM (Fig. 6)) is given as “above 85 % of the control”.

B1: recombinant human UGT1A1 (Homo sapiens) (protein)
chain: HAGKILLIPVDGSHWLSMLGAIQQLQQRGHEIVVLAPDASLYIRDGAFYTLKTYPVPFQREDVKESFVSLGHNVFENDSFLQRVIKTYKKIKKDSAMLLSGCSHLLHNKELMASLAESSFDVMLTDPFLPCSPIVAQYLSLPTVFFLHALPCSLEFEATQCPNPFSYVPRPLSSHSDHMTFLQRVKNMLIAFSQNFLCDVVYSPYATLASEFLQREVTVQDLLSSASVWLFRSDFVKDYPRPIMPNMVFVGGINCLHQNPLSQEFEAYINASGEHGIVVFSLGSMVSEIPEKKAMAIADALGKIPQTVLWRYTGTRPSNLANNTILVKWLPQNDLLGHPMTRAFITHAGSHGVYESICNGVPMVMMPLFGDQMDNAKRMETKGAGVTLNVLEMTSEDLENALKAVINDKSYKENIMRLSSLHKDRPVEPLDLAVFWVEFVMRHKGAPHLRPAAHDLTWYQYHSLDVIGFLLAVVLTVAFITFKCCAYGYRKCLGKKGRVKKAHKSKTH
For the molecule B1, in data set [4] (other: UGT1A1, M1 formation), the Km was found to be 7.6 ± 1.8 µM and the Vmax was 0.17 ± 0.01 nmol/min/mg. In data set [4] (other: UGT1A1, M2 formation), the Michaelis constant (Km) was 24 ± 14 µM and the maximal velocity (Vmax) is recorded as 0.11 ± 0.03 nmol/min/mg.

B2: recombinant human UGT1A8 (Homo sapiens) (protein)
chain: GKLLVVPMDGSHWFTMQSVVEKLILRGHEVVVVMPEVSWQLGKSLNCTVKTYSTSYTLEDLDREFMDFADAQWKAQVRSLFSLFLSSSNGFFNLFFSHCRSLFNDRKLVEYLKESSFDAVFLDPFDACGLIVAKYFSLPSVVFARGIACHYLEEGAQCPAPLSYVPRILLGFSDAMTFKERVRNHIMHLEEHLFCQYFSKNALEIASEILQTPVTAYDLYSHTSIWLLRTDFVLDYPKPVMPNMIFIGGINCHQGKPLPMEFEAYINASGEHGIVVFSLGSMVSEIPEKKAMAIADALGKIPQTVLWRYTGTRPSNLANNTILVKWLPQNDLLGHPMTRAFITHAGSHGVYESICNGVPMVMMPLFGDQMDNAKRMETKGAGVTLNVLEMTSEDLENALKAVINDKSYKENIMRLSSLHKDRPVEPLDLAVFWVEFVMRHKGAPHLRPAAHDLTWYQYHSLDVIGFLLAVVLTVAFITFKCCAYGYRKCLGKKGRVKKAHKSKTH
With B2, in data set [5], the Michaelis-Menten constant (Km) worked out at 64 ± 9 µM and the maximal velocity (Vmax) is recorded as 11 ± 3 nmol/min/mg.

B3: recombinant human UGT1A3 (Homo sapiens) (protein)
chain: GKVLVVPIDGSHWLSMREVLRELHARGHQAVVLTPEVNMHIKEENFFTLTTYAISWTQDEFDRHVLGHTQLYFETEHFLKKFFRSMAMLNNMSLVYHRSCVELLHNEALIRHLNATSFDVVLTDPVNLCAAVLAKYLSIPTVFFLRNIPCDLDFKGTQCPNPSSYIPRLLTTNSDHMTFMQRVKNMLYPLALSYICHAFSAPYASLASELFQREVSVVDILSHASVWLFRGDFVMDYPRPIMPNMVFIGGINCANRKPLSQEFEAYINASGEHGIVVFSLGSMVSEIPEKKAMAIADALGKIPQTVLWRYTGTRPSNLANNTILVKWLPQNDLLGHPMTRAFITHAGSHGVYESICNGVPMVMMPLFGDQMDNAKRMETKGAGVTLNVLEMTSEDLENALKAVINDKSYKENIMRLSSLHKDRPVEPLDLAVFWVEFVMRHKGAPHLRPAAHDLTWYQYHSLDVIGFLLAVVLTVAFITFKCCAYGYRKCLGKKGRVKKAHKSKTH
For the molecule B3, in data set [6], the Km worked out at 11 ± 4 µM and the Vmax worked out at 0.32 ± 0.06 nmol/min/mg.

B4: recombinant human UGT1A10 (Homo sapiens) (protein)
chain: GKLLVVPMDGSHWFTMQSVVEKLILRGHEVVVVMPEVSWQLERSLNCTVKTYSTSYTLEDQNREFMVFAHAQWKAQAQSIFSLLMSSSSGFLDLFFSHCRSLFNDRKLVEYLKESSFDAVFLDPFDTCGLIVAKYFSLPSVVFTRGIFCHHLEEGAQCPAPLSYVPNDLLGFSDAMTFKERVWNHIVHLEDHLFCQYLFRNALEIASEILQTPVTAYDLYSHTSIWLLRTDFVLDYPKPVMPNMIFIGGINCHQGKPLPMEFEAYINASGEHGIVVFSLGSMVSEIPEKKAMAIADALGKIPQTVLWRYTGTRPSNLANNTILVKWLPQNDLLGHPMTRAFITHAGSHGVYESICNGVPMVMMPLFGDQMDNAKRMETKGAGVTLNVLEMTSEDLENALKAVINDKSYKENIMRLSSLHKDRPVEPLDLAVFWVEFVMRHKGAPHLRPAAHDLTWYQYHSLDVIGFLLAVVLTVAFITFKCCAYGYRKCLGKKGRVKKAHKSKTH
For B4, in data set [7], the Km is 28 ± 8 µM and the maximal velocity (Vmax) was determined as 0.5 ± 0.1 nmol/min/mg.

In general, Km refers to the concentration of substrate that gives half-maximal velocity. Usually Vmax stands for the top rate of the reaction or transport when substrate is in excess.
